{"source": "patent US20240401101A1", "about": "“A LIVE CELL ASSAY TO DETERMINE PERMEABILITY OF TEST MOLECULES TO AND/OR WITHIN THE PEPTIDOGLYCAN SCAFFOLD OF BACTERIA CELLS” (priority 2021, published 2024)", "molecules": {"B1": {"name": "proteinase K: promiscuous protease (protein, UniProt P06873 106-384, looked up)", "Proteinase K": "AAQTNAPWGLARISSTSPGTSTYYYDESAGQGSCVYVIDTGIEASHPEFEGRAQMVKTYYYSSRDGNGHGTHCAGTVGSRTYGVAKKTQLFGVKVLDDNGSGQYSTIIAGMDFVASDKNNRNCPKGVVASLSLGGGYSSSVNSAAARLQSSGVMVAVAAGNNNADARNYSPASEPSVCTVGASDRYDRRSSFSNYGSVLDIFGPGTSILSTWIGGSTRSISGTSMATPHVAGLAAYLMTLGKTTAASACRYIADTANKGDLSNIPFGTVNLLAYNNYQA"}}, "tested_on": "S. aureus (ATCC 25923)", "assay": "Enzymatic degradation of fluorescently labeled whole cells (mutanolysin / proteinase K), incl. BONCAT control", "format": "cell-based, Staphylococcus aureus"}
{"molecule": "B1", "values": [{"measurement": "cellular fluorescence of D-cystine/Mal-Fl labeled cells during enzyme treatment", "setting": "50 μg/mL mutanolysin or 500 μg/mL proteinase K, mutanolysin read at 120 minutes", "result": "remained mostly unchanged"}, {"measurement": "cellular fluorescence of L-azidohomoalanine/DBCO-Fl labeled cells after enzyme treatment", "setting": "BONCAT, 1 mM AHA, 25 μM DBCO-Fl", "result": "significant decrease"}]}
